Reference: patent publication US20020035240A1 (Amgen, published 2002)

Biological target: T1, rat p55CDC (rat, UniProt Q62623 1-499, phosphorylated in CHO cells (sites not given))
T1 construct: 499 amino acids; In the assays it came from cell lysates: CHO cells transfected with the 1.8 kb rat cDNA (PMTp55s), or the endogenous protein of Rat1 cells
Test: co-immunoprecipitation with p55CDC antibody from 35S-labelled CHO cell lysates, SDS-PAGE
Method: Autoradiography was performed for 1 week.
In vitro translation was performed using a nuclease treated rabbit reticulocyte lysate (Promega, Madison, WI) and [³H]-leucine (Amersham TRK683). The mRNA template was produced by using the Stratagene in vitro transcription kit and the p55CDC cDNA subcloned into the Bluescript vector as substrate. Cell lysates were prepared as described (59) after rinsing the plates twice with PBS. Cells were lysed in modified radioimmunoprecipitation assay (RIPA) buffer with additional […] (150 mM NaCl, 1.0% NP-40, 1.0% sodium deoxycholate, 0.1% SDS, 2 mM EDTA, 6 mM Na₂HPO₄, 4 mM NaH₂PO4 50 mM NaF, 200 μM Na₃VO₄, 20 μg/ml aprotinin, 1 μg/ml leupeptin, 10 μg/ml soybean trypsin inhibitor and 50 μg/ml phenylmethyl sulfonyl fluoride). All protease inhibitors were purchased from Sigma. Protein concentrations were estimated using the Bicinchoninic acid reagent (Pierce). For 250 μg lysate in a final volume of 700 μl RIPA buffer, we used 7 μl of affinity purified p55CDC antibodies (140 μg protein/ml) or 12 μl of p55CDC competed antiserum (700 μg protein/ml) which gave an equivalent level of immunoglobulin for both preparations. Immunoprecipitation of p34^cdc2 complexes was done using 10 μl of the p34^cdc2 mouse monoclonal antibody 17 (Santa Cruz Biotechnology, Santa Cruz, Calif.). […]

T1 sequence (Q62623 whole entry D77E): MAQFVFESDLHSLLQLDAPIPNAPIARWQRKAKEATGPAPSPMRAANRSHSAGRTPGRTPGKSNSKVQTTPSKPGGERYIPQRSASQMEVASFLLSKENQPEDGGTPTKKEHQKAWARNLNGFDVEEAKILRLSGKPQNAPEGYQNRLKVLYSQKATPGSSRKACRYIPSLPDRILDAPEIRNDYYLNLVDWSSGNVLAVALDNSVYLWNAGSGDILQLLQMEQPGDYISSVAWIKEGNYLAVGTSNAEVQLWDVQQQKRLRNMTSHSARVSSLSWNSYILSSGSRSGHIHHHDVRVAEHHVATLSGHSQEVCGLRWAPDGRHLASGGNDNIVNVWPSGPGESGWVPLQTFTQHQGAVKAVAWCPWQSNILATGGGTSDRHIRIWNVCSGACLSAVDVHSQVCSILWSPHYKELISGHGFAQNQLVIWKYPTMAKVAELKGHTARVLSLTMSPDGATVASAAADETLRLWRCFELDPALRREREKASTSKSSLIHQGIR

B1: p34cdc2 (CHO cells) (enzyme)
chain: not shown
B1: no binding.
